Test [1] has as its target IL-12 receptor on HEK-Blue IL-12 cells (UniProt P42701). Briefly: cell-based or functional assay.
Test [2] has as its target mouse TGF-β1 (R&D systems) (mouse) (UniProt P04202). Briefly: direct ELISA with mouse TGF-β1; supernatant of transfected HEK293T cells. For orientation: In an ELISA, binding on a coated surface is turned into a signal by an enzyme label.
For test [3] the target is unchanged. Briefly: direct ELISA with mouse TGF-β1; concentrated supernatant of transfected HEK293T cells.
Test [4] deals with recombinant murine CTLA-4-human IgG1 Fc chimera (R&D Systems) (mouse; human) (UniProt P09793). Briefly: competitive ELISA; competitor mouse CD80 coated at 100 ng/ml, 10 ng/ml murine CTLA-4-human IgG1 Fc mixed with HEK293T supernatant, anti-human IgG1-HRP.
Test [5] shares this target. Briefly: competitive ELISA; competitor mouse CD86 coated at 100 ng/ml, 10 ng/ml murine CTLA-4-human IgG1 Fc mixed with HEK293T supernatant, anti-human IgG1-HRP.

Results on six substances are retold here after patent publication US20240293478A1.

Chain of IL-12 receptor on HEK-Blue IL-12 cells (Q99665 24-862, chain 2 of 2, other chains not shown): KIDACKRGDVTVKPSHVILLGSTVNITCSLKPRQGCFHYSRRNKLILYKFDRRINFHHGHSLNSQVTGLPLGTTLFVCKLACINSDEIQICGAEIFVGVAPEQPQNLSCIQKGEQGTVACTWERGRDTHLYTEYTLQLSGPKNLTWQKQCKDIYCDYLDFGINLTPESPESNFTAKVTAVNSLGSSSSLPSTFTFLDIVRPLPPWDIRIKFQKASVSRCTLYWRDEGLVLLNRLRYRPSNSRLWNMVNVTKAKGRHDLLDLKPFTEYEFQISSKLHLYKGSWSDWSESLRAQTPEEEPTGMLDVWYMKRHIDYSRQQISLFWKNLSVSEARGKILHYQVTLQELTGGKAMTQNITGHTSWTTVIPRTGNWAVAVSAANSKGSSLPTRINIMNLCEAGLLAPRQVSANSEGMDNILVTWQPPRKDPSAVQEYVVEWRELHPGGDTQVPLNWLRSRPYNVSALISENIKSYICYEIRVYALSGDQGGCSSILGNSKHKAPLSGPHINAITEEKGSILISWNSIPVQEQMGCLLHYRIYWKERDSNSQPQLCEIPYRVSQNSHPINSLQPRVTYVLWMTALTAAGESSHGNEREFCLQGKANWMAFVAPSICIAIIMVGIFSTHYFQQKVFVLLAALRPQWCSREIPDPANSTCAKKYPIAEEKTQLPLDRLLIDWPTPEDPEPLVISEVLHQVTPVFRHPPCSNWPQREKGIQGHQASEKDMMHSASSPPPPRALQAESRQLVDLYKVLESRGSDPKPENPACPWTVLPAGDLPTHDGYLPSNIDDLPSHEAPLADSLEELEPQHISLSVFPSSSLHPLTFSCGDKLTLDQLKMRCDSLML
Chain of recombinant murine CTLA-4-human IgG1 Fc chimera (R&D Systems) (mouse; human) (P09793 36-162 limits assumed, change not shown): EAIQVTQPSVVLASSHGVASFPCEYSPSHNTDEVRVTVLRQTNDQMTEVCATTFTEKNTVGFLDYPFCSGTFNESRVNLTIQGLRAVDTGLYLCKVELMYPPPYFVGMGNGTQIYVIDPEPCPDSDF
Chain of mouse TGF-β1 (R&D systems) (mouse) (P04202 279-390 limits assumed): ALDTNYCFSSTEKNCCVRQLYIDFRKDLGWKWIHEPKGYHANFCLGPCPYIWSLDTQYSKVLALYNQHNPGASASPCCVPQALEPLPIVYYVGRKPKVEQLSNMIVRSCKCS

Human membrane bound IL-12p70 (ligand) came in with an STAT4-SEAP (Absorbance/% GFP); transfected HEK cells co-cultured with HEK-Blue IL-12 cells (Absorbance/% GFP) in test [1] of 0.237.

In test [1], Mouse membrane bound IL-12p70 (ligand) displayed an STAT4-SEAP (Absorbance/% GFP); transfected HEK cells co-cultured with HEK-Blue IL-12 cells (Absorbance/% GFP) of 0.117.

Take “Soluble mouse TGFβ receptor II Fc (from UniProt Q62312 24-166) (Fc fusion)”: the results for the Absorbance at 450 nm (absorbance (450 nm)) in test [2] and in test [3] were 1.51 and 1.52, respectively.

Regarding huIL-12p70 (ligand), the STAT4-SEAP (Absorbance/% GFP); transfected HEK cells co-cultured with HEK-Blue IL-12 cells (Absorbance/% GFP) in test [1] was determined as 0.11.

Take ipilimumab scFv antibody fragment: the % CD80 Blockade Activity in test [4] came to 7%. In addition, in test [5], the % CD86 Blockade Activity came to 32.5%.

In test [1], muIL-12p70 (ligand) returned an STAT4-SEAP (Absorbance/% GFP); transfected HEK cells co-cultured with HEK-Blue IL-12 cells (Absorbance/% GFP) of 0.11.
